According to US20040053278A1:

Assays:
[1] = biological target: constitutively active (TD) TβR-I (UniProt P36897); assay: cell-based or functional assay
[2] = biological target: constitutively active BMPR-IB; assay: cell-based or functional assay

Chain of constitutively active (TD) TβR-I (P36897 34-503 T204D limits assumed): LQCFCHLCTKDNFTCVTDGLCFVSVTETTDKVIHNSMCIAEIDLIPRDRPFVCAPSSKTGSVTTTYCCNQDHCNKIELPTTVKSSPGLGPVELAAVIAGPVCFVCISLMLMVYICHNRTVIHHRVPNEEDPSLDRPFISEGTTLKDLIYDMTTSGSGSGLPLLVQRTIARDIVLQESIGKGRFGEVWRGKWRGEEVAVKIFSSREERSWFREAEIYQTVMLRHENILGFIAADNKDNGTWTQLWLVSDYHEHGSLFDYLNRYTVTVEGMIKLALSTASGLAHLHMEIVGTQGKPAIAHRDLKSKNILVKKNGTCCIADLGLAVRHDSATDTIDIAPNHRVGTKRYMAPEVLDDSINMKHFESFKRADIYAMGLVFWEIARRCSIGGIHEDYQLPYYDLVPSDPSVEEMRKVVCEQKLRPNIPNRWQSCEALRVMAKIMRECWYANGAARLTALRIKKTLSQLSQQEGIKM

Phosphorylation of Smad2 induced by constitutively active TβR-I ([32P]orthophosphate labeling, immunoprecipitation) [1]: 39 % reduction
Smad1 phosphorylation induced by constitutively active BMPR-IB [2]: 60 % reduction
Substance: Myc-Smad6 (from UniProt O35182 1-495)
